{"source": "paper PMC11882849", "about": "“Dynamic and intricate regulation by the Csr sRNAs in the Arctic Pseudoalteromonas fuliginea”", "binders": {"B1": {"name": "Pf3 sRNA (structured_RNA)", "RNA": "AAUAAAAAAACGGAAAUAGCUAUAAGGAAAGUAGCGCGGCACGACUACAUAGCACAAGAUUGGUGCUACUAAAGGAAAUAAUAAAAAAGAGUCAGGAAGACCGAUAAUAAUAAAAACUCAUGGAAGUUUAAUAAUAAAAACAAAAUGGAAUGCUACAAGGAACGUAAAAAUAAUAACAAUACGGACUGAUAAUAAUAAAAAUAAUAAAGACUAAAAAAAGUCGAAGGGAGA"}}, "target": "CsrA (Pseudoalteromonas fuliginea BSW20308, UniProt A0A063KJE6 1-63)", "experiment": "EMSA; 1 uM CsrA; 0.1-0.5 nM RNA, 40 mM NaCl, 4 mM Tris pH 8.0, 4 mM MgCl2, 4% glycerol, 100 mg/ml BSA (so in the source), 20 mM DTT, room temperature 30 min, native PAGE", "details": "protein: recombinant; tags: C-terminal His6; chain copies: 2"}
{"binder": "B1", "values": [{"measurement": "binding result", "value": "binds"}]}
